Test results taken from the DeepSol protein solubility set.

Assay: soluble on expression in E. coli; label from the status in PepcDB or PDB records

MQRSLQIFCIMSAIAMAYSQGSRDDNQSAKRNDFSRDIMSFGKRSGNTADLYDRRIMAFGKRQPSYDRDIMSFGKRSAPSDFSRDIMSFGKRSSSMYDRDIMSFGKRSPVDYDRPIMAFGKRAEDYERQIMAFGRRK
soluble on expression in E. coli: not soluble

SLGMIKNSLFGSVETWPWQVLSKGDKEEVAYEERACEGGKFATVEVTDKPVDEALREAMPKVAKYAGGTNDKGIGMGMTVPISFAVFPNEDGSLQKKLKVWFRIPNQFQSDPPAPSDKSVKIEEREGITVYSMQFGGYAKEADYVAQATRLRAALEGTATYRGDIYFCTGYDPPMKPYGRRNEIWLLKT
soluble on expression in E. coli: soluble

MKATLFVREFLLNPRTIGAILPSSDYLAEKMMASVCFEQAKYIIEYGPGTGVFTDKILRYRHPDTVVMIIEHNREFFCILNEKYQDEKNVIIINGSAEHIETYVKEHNIPFVDYIISGLPFASLPLHVSNAILNKARYLLGVKGKFITFQYTQTKVRLFTQFFNQMTVERVYRNLPPAFVFSCYNEKLEHHHHHH
soluble on expression in E. coli: soluble

MGSDKIHHHHHHMTKNNIAVKVDHVSKYFKLPVESTQSLRTALVNRFKGIKGYKKQHVLRDIDFEVEKGDFFGIVGRNGSGKSTLLKIISQIYVPEQGKVTVDGKLVSFIELGVGFNPELTGRENVYMNGAMLGFTTEEVDTMYQDIVDFAELQDFMNQKLKNYSSGMQVRLAFSVAIKAQGDVLILDEVLAVGDEAFQRKCNDYFLERKNSGKTTILVTHDMAAVKKYCNKAVLIDDGLIKAIGEPFDVANQYSLDNTDQIVEDKQEEEAAVQEEEQIVVDNLEVKLLSANRMTPRDSIRFEISYNVLADVGTYIALSLTDVDRNIWIYNDNSLDYLSSGSGKKRVFYECHLKSLNDIKLKLEVTVRDKQGQMLAFSSATNTPIISINRDDLEGDDKSAMDSASGLIQRNGQWQFS
soluble on expression in E. coli: not soluble

MGSDKIHHHHHHLEYVIEMLNIRKEFGSFVANDNITLQLRKGEIHALLGENGAGKSTLMNVLFGLYQPEAGEIRVRGEKVNITSPNVANDLGIGMVHQHFMLVQNFTVTENIILGAEPKAGLKIDRAAAREKVRQISEQYGLAVDPDAKIEDISVGMQQRVEILKTLYRGADILIFDEPSAVLTPQEIKELIQIMNRLIAEGKSIILITHKLKEIMEVADRCTTIRRGKYIGTVDIDETMTQSRLAEMMVGREVNFNAEYSKATPQELVLDIKDLVVKDSRGIKAVDGLNLDIRAGEIVGIAGIDGNGQTELIEAITGLRKADSGEIFLNNKSIKNLKPRKVTEAGVGHIPQDRHKHGLVLDYSIGHNMVLQTYYQKPYSKAGIMNYGQVMDKAKTLIEKFDVRTPSPETFARALSGGNQQKAIIAREVDRSPDLLIAAQPTRGLDVGAIEFIHEQLVLEREKGRAVLLISFELEEILQVSDRIAVLYEGRTVAFLDPKETNEIELGFLMAGGKKEEVGRS
soluble on expression in E. coli: not soluble

MNTQTGTGTSEVSKKLKAAIRAKLEELGVYVDDELPDYIMVMIANKKEKVQMKDDLNLFIGKSTAKFVDWLFDLFDRLQNASNKQGETSKKEEDKRKELEATAAAKEHEEKRRKEKEEHEKELQKEKEREKERQRERDREKRAEEEKRREEKRKEIQRSKRRRTRSRSNTYSDEEEHVRARGEKHDRHHHKDHRRGRSHERKIITSTIVRQASASPDKKLHSTVTVKRNIRPTGDQNIKGRGTMFLRAMNEASVSAGYGSSSKRSETHHEDDMSDVEALPSKPASTKSPKKSIRDRMSRISKTSEPPIEEDDAVVLEDFAQTGGGPQMILKLSGGREAIKKTRIQDRIVVDDGLRRGLLKRKIETASGASAGAATSEEPKSKHDRIIFDITPSRDSTPTDDSPTMQKWNGQIEIGDDSEESEDDEEAEIDAFVAEARGIARRESFRDEEDELPPTHQLSGGPYAYHHSTAAPTYIPTPLSVLSEQQNQMGGGAAKEDHHVKERCIFWPKCTKGDTCAFMHPTTNCKNFPNCTFGIRCLFIHPPCRFDRFCTKKHCPFTHHGTGGQQPGGAQLTSEFKNPLTSSRMLTVPSPFIAATAAAVEELPKPAARGALGSLAEKLAASIKKKPAPGAESEKKEEKSDENESKAEEPKAEVAPVQPKPLPDIAPLHSMVLCRYAGACRNPICHFKHPKECRFGANCRNPSCYFYHKPAGAAPTPVAAPIAAESAGAAKYKWTSATAN
soluble on expression in E. coli: not soluble

MNISLSRVHFPVTTLGPGQRLGLWFQGCSIRCAGCISADTWGPGKHPLPLAQVLDDLQPWLARAEGITLSGGEPFDQPEALLALLRGLRERTGVDILVYSGHSLETLQPLLQQAEGLLDALICDPFEQQQAQTLVLRGSDNQRLIFLTELGRQRLSTYQRPLHHEDRALDVMFDDDGSVWMAGIPRRDDVLRLRDLLHDQGHQLQISAHTSRRRLEHHHHHH
soluble on expression in E. coli: not soluble

MAGDPMYHSRPIFNIIDSSNIQDRRELKLVLRHTEIAYRSFAQEDLIPAQRSWMNSIINTDVPIDPAIDEVVKRFCEVACLPGPAGIPLNIILNDSLTYVYCSFQAMRKYAHKRFYDGVSDEGVVISTVPPYAEGITKETMRSWHNNVCQNTSNETHDLDAYIAFLPTSLQNPSFSHMKIGCDSFLAPSRVDPFCVEIIAVGKALFHDNGLKKNPRCGGQWLPPSCLEHHHHHH
soluble on expression in E. coli: not soluble

MKKRKPMDYKTRIIYALLKSRLKTIDTYASRAEEIQDRQLRRILSSAAYTSTGIRYGFNRISSKECFARNVPVRDYESTQAEIERMLRGEKDVLCPGRCTWFAKSSGTTNSKSKFIPVPYRHLHYCHYQGGKDSLSLYLRNRPDSRFFTTKGLVLGGSHAPVSMNADIQVGDLSAILVENMPVLGNCMRVPSKETLLMDEWTEKLKAVVREVAHVRVGSLSGVPSWILVLIKDVLAATGRETLSDVWPELEVFFHGGISFAPYRAQYEKLIPSSRMQYMETYNASEGFFGIQDDPKDSGMLLMLDYGVYYEFIPMEHFGRPEAEAIPLEGVEKGRNYAMIISTLGGLYRYVLGDTVRFTSVKPYKIVITGRTKHYINAFGEELMVDNSDKALAATCKRFGVQAVDYTVAPHFFSEEGKGRHDWLIEFVSAPADPNAFAKALDAELQTLNSDYEAKRYADMTLLPLSLTIARSGLFHDWLTEQGKLGGQHKVPRLSNTPEIMRSILEMNSAAALEHHHHHH
soluble on expression in E. coli: not soluble

MGHHHHHHSHMGIKYHEESIHAAYVHVIENSRHYIYIENQFFISCADDKVVFNKIGDAIAQRILKAHRENQKYRVYVVIPLLPGFEGDISTGGGNALQAIMHFNYRTMCRGENSILGQLKAELGNQWINYISFCGLRTHAE
soluble on expression in E. coli: soluble

VIALLAPGQGSQTEGMLSPWLQLPGAADQIAAWSKAADLDLARLGTTASTEEITDTAVAQPLIVAATLLAHQELARRCVLAGKDVIVAGHSVGEIAAYAIAGVIAADDAVALAATRGAEMAKACATEPTGMSAVLGGDETEVLSRLEQLDLVPANRNAAGQIVAAGRLTALEKLAEDPPAKARVRALGVAGAFHTEFMAPALDGFAAAAANIATADPTATLLSNRDGKPVTSAAAAMDTLVSQLTQPVRWDLCTATLREHTVTAIVEFPPAGTLSGIAKRELRGVPARAVKSPADLDELANL
soluble on expression in E. coli: not soluble

MADDFKTAQMNNPHLRNYVEKFKKTYMKVPEFVPSLSRDFKEIKYPNIIYPIGDPIFIHLYGTPNLKTRYIAIEPKLNGSEERKKYFDILDKILEYAPYSDIPENDEEFGKVVTKLFDMVAK
soluble on expression in E. coli: not soluble

ARVDQTPQTITKETGESLTINCVLRDSNCALSSTYWYRKKSGSTNEESISKGGRYVETVNSGSKSFSLRINDLTVEDSGTYRCKPESRYGSYDAECAALNDQYGGGTVVTVNAAAHHHHHH
soluble on expression in E. coli: soluble

MANFIEKITYLGTPAIKAGNEHLEMIVVPEWGSNVISLVDKTTNVQLLREPETAESFHDTPTLYGIPILFPPNRISDGTFSFRGRTYHFDINEKDKHNHLHGFLYHEKWNVVTTKQTDEGVIVETEIDLSELPHVQKQFPHHAVVRMTYTIKENTLFKHATVMNKGKEAFPWGIGYHTTFIFPAESSLFSLTADQQWELDERLLPTGKLMDVPYKEALHEGMDLRHKQLDDVFLSSYQKRGGENQAVIYHQHAHISIIYKADEQFKHWVVYNADGKQGYLCPEPYTWVTNAVNLDLPSSLTGLQVLEPGEETTAKSSITIELNHQLEHHHHHH
soluble on expression in E. coli: soluble

KAPNLYMTDTTGTYRYLYDVQAKYTILFFWDSQCGHCQQETPKLYDWWLKNRAKGIQVYAANIERKDEEWLKFIRSKKIGGWLNVRDSKNHTDFKITYDIYATPVLYVLDKNKVIIAKRIGYENLDDFLVQYEKSLKTK
soluble on expression in E. coli: not soluble
